Patent US20030096306A1

Biological target: GCN4 leucine zipper (aa 245-285) fused C-terminal to LexA (yeast)
Assay: cell-based or functional assay

Question: For “Gal4 AD-anti-GCN4 (H-R66K) scFv (from UniProt P04386 768-881)”, which growth on -Trp/-Leu/-His plates with 3-AT (HIS3 reporter, two hybrid) is on record?
Answer: 20 mM 3-AT
